The assay addresses Taxol-stabilised microtubules of porcine brain tubulin (porcine) (UniProt P02550). Description: co-sedimentation.

Chain of EB1 full-length (end-binding protein 1), wild type (Q15691 whole entry): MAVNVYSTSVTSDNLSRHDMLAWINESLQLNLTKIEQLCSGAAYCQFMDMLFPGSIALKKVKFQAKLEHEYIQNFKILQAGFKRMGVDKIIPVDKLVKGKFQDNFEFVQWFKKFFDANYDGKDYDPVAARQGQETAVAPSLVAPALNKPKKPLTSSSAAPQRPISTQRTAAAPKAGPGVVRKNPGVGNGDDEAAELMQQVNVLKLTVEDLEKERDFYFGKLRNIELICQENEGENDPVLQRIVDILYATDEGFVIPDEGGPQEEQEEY

“EB1 full-length (end-binding protein 1), wild type (from UniProt Q15691 1-268) (natural protein)” displayed a percent bound of 50%.

Values taken from paper PMC4834876.
